# Measurements taken from publication PMC12808100 (Nature Communications, 2025).
# *: point of attachment. Biotin = O=C1N[C@H]2[C@H](CS[C@H]2CCCCC(=O)*)N1; TTDS = Trioxatridecan-succinamic acid linker
# T1: EPS15 (human (endogenous in Jurkat), UniProt P42566 1-896)
# T1 construct: EPS15, EH protein with three EH domains, endogenous in Jurkat E6.1 extract, detected by western blot with an EPS15 antibody; also called endogenous EPS15; EH protein with three EH domains; source: endogenous, total Jurkat extract
# T1 sequence (looked up): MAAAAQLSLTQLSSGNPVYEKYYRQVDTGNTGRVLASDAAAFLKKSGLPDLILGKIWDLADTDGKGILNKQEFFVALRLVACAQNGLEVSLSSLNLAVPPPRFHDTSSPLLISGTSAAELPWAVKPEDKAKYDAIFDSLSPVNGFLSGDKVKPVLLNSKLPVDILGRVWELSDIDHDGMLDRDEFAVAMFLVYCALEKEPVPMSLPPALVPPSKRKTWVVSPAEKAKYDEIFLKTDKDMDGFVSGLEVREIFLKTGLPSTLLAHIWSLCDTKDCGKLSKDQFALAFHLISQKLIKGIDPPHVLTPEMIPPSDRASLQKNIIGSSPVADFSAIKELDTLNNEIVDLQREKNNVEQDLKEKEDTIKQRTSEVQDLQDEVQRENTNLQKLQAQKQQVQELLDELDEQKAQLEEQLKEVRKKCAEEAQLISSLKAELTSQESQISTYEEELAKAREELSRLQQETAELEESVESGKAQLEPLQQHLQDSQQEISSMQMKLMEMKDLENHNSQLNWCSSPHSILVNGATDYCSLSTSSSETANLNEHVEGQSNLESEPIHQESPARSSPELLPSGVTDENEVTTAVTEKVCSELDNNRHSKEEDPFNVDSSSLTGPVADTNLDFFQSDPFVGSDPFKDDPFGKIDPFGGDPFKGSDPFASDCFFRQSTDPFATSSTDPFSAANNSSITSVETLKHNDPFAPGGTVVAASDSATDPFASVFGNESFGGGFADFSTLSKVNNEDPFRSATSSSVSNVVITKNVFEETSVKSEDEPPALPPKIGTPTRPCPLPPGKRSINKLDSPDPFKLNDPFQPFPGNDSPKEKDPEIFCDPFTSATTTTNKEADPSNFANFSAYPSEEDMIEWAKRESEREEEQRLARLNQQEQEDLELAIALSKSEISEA
# Target: T1, EPS15
# Assay: native holdup (nHU) titration with western blot; biotinylated peptide bait on streptavidin resin, bait-saturated and control (biotin) resin mixed at various proportions; total Jurkat extract as analyte; 4 °C, 2 h; endogenous POLE and EPS15 left in the supernatant quantified by western blot; apparent dissociation constants
# Conditions: one partner purified
row,Binder,Kd
1,"GPAAARRNPFSDRDNRPR (HELM PEPTIDE1{[O=C1N[C@H]2[C@H](CS[C@H]2CCCCC(=O)[*:2])N1].[O=C(CCCCCN[*:1])[*:2]].G.P.A.A.A.R.R.N.P.F.S.D.R.D.N.R.P.R.[am]}$$$$V2.0; SMILES C[C@H](NC(=O)[C@H](C)NC(=O)[C@@H]1CCCN1C(=O)CNC(=O)CCCCCNC(=O)CCCC[C@@H]1SC[C@@H]2NC(=O)N[C@@H]21)C(=O)N[C@@H](C)C(=O)N[C@@H](CCCNC(=N)N)C(=O)N[C@@H](CCCNC(=N)N)C(=O)N[C@@H](CC(N)=O)C(=O)N1CCC[C@H]1C(=O)N[C@@H](Cc1ccccc1)C(=O)N[C@@H](CO)C(=O)N[C@@H](CC(=O)O)C(=O)N[C@@H](CCCNC(=N)N)C(=O)N[C@@H](CC(=O)O)C(=O)N[C@@H](CC(N)=O)C(=O)N[C@@H](CCCNC(=N)N)C(=O)N1CCC[C@H]1C(=O)N[C@@H](CCCNC(=N)N)C(N)=O) [DONSON-SYNJ1 chimera peptide, C-terminal flank replaced]",> 20 µM
2,"GPAATRTNPFSDRDNRPR (HELM PEPTIDE1{[O=C1N[C@H]2[C@H](CS[C@H]2CCCCC(=O)[*:2])N1].[O=C(CCCCCN[*:1])[*:2]].G.P.A.A.T.R.T.N.P.F.S.D.R.D.N.R.P.R.[am]}$$$$V2.0; SMILES C[C@H](NC(=O)[C@H](C)NC(=O)[C@@H]1CCCN1C(=O)CNC(=O)CCCCCNC(=O)CCCC[C@@H]1SC[C@@H]2NC(=O)N[C@@H]21)C(=O)N[C@H](C(=O)N[C@@H](CCCNC(=N)N)C(=O)N[C@H](C(=O)N[C@@H](CC(N)=O)C(=O)N1CCC[C@H]1C(=O)N[C@@H](Cc1ccccc1)C(=O)N[C@@H](CO)C(=O)N[C@@H](CC(=O)O)C(=O)N[C@@H](CCCNC(=N)N)C(=O)N[C@@H](CC(=O)O)C(=O)N[C@@H](CC(N)=O)C(=O)N[C@@H](CCCNC(=N)N)C(=O)N1CCC[C@H]1C(=O)N[C@@H](CCCNC(=N)N)C(N)=O)[C@@H](C)O)[C@@H](C)O) [DONSON-SYNJ1 chimera peptide, both flanks replaced]",> 200 µM

# Continued, values first:
row,Kd,Binder
1,> 30 µM,"GPAATRTNPFARLDNRPR (HELM PEPTIDE1{[O=C1N[C@H]2[C@H](CS[C@H]2CCCCC(=O)[*:2])N1].[O=C(CCCCCN[*:1])[*:2]].G.P.A.A.T.R.T.N.P.F.A.R.L.D.N.R.P.R.[am]}$$$$V2.0; SMILES CC(C)C[C@H](NC(=O)[C@H](CCCNC(=N)N)NC(=O)[C@H](C)NC(=O)[C@H](Cc1ccccc1)NC(=O)[C@@H]1CCCN1C(=O)[C@H](CC(N)=O)NC(=O)[C@@H](NC(=O)[C@H](CCCNC(=N)N)NC(=O)[C@@H](NC(=O)[C@H](C)NC(=O)[C@H](C)NC(=O)[C@@H]1CCCN1C(=O)CNC(=O)CCCCCNC(=O)CCCC[C@@H]1SC[C@@H]2NC(=O)N[C@@H]21)[C@@H](C)O)[C@@H](C)O)C(=O)N[C@@H](CC(=O)O)C(=O)N[C@@H](CC(N)=O)C(=O)N[C@@H](CCCNC(=N)N)C(=O)N1CCC[C@H]1C(=O)N[C@@H](CCCNC(=N)N)C(N)=O) [DONSON-SYNJ1 chimera peptide, N-terminal flank replaced]"
2,1 µM,"RSSPNPFITGLTRTNPFSDRTAAPGNPFRAKS (HELM PEPTIDE1{[O=C1N[C@H]2[C@H](CS[C@H]2CCCCC(=O)[*:2])N1].[O=C(CCCCCN[*:1])[*:2]].R.S.S.P.N.P.F.I.T.G.L.T.R.T.N.P.F.S.D.R.T.A.A.P.G.N.P.F.R.A.K.S.[am]}$$$$V2.0; SMILES CC[C@H](C)[C@H](NC(=O)[C@H](Cc1ccccc1)NC(=O)[C@@H]1CCCN1C(=O)[C@H](CC(N)=O)NC(=O)[C@@H]1CCCN1C(=O)[C@H](CO)NC(=O)[C@H](CO)NC(=O)[C@H](CCCNC(=N)N)NC(=O)CCCCCNC(=O)CCCC[C@@H]1SC[C@@H]2NC(=O)N[C@@H]21)C(=O)N[C@H](C(=O)NCC(=O)N[C@@H](CC(C)C)C(=O)N[C@H](C(=O)N[C@@H](CCCNC(=N)N)C(=O)N[C@H](C(=O)N[C@@H](CC(N)=O)C(=O)N1CCC[C@H]1C(=O)N[C@@H](Cc1ccccc1)C(=O)N[C@@H](CO)C(=O)N[C@@H](CC(=O)O)C(=O)N[C@@H](CCCNC(=N)N)C(=O)N[C@H](C(=O)N[C@@H](C)C(=O)N[C@@H](C)C(=O)N1CCC[C@H]1C(=O)NCC(=O)N[C@@H](CC(N)=O)C(=O)N1CCC[C@H]1C(=O)N[C@@H](Cc1ccccc1)C(=O)N[C@@H](CCCNC(=N)N)C(=O)N[C@@H](C)C(=O)N[C@@H](CCCCN)C(=O)N[C@@H](CO)C(N)=O)[C@@H](C)O)[C@@H](C)O)[C@@H](C)O)[C@@H](C)O, SYNJ1, residues 1390-1421, contains three NPF motifs; also called SYNJ1_1390-1421; triple motif of SYNJ1; source: synthetic peptide; bought: Synpeptide) [NPF motif peptide of SYNJ1 (residues 1390-1421)]"
3,> 60 µM,"{Biotin-TTDS}-GPAAARRNPFARLDNRPR-NH2 (Protein downstream neighbor of Son (DONSON), residues 71-88; also called DONSON_71-88; DONSON_718-88 (as printed in the sheet); source: synthetic peptide (ABI 443 A synthesizer, Fmoc strategy)) [NPF motif peptide of DONSON (residues 71-88)]"

# Target: T2, His6-AviTag-MBP-TEV-POLE2 (human, UniProt P56282 1-527, biotin on the AviTag (BirA co-expressed, biotin in the medium))
# T2 construct: POLE2, residues 1-527; a TEV site lies between MBP and POLE2; also called His6-avi-MBP-tagged POLE2; avi-His6-MBP-POLE2; source: E. coli BL21(DE3), co-expressed with BirA, purified (HisTrap, MBPtrap, Q HP); not shown: His6, N-terminal, kept; AviTag, N-terminal, kept; MBP, N-terminal, kept
# T2 sequence (P56282 whole entry, the tested form may be a part): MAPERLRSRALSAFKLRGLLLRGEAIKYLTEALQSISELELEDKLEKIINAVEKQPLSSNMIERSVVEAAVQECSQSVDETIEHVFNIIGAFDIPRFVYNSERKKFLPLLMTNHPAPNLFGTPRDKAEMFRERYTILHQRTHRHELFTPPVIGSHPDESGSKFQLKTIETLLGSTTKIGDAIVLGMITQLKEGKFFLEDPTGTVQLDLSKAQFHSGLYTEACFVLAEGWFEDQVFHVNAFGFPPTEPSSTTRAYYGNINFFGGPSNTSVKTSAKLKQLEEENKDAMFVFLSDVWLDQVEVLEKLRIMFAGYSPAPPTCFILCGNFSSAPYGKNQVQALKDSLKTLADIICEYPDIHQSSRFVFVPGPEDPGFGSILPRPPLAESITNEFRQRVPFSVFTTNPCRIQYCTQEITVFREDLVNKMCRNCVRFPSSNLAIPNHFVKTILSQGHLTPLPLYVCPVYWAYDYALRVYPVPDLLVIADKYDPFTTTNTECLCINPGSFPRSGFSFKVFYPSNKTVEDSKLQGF
# Assay: native holdup (nHU) titration with dot blot; purified His6-avi-MBP-tagged POLE2 as bait on resin; extracts of HEK293T cells transfected with HA-tagged full length proteins; 4 °C, 2 h; anti-HA dot blot; apparent
# Conditions: one partner purified
row,fold weaker affinity than the wild type,Binder
1,1000 fold,"HA-WDHD1, full length, NPF motif mutated to KAF (natural protein, human, UniProt O75717 1-1129, looked up, WDHD1, residues 1-1129; also called WDHD1 mutant; source: HEK293T, transfected, in cell extract; not shown: HA, N-terminal, kept) MPATRKPMRYGHTEGHTEVCFDDSGSFIVTCGSDGDVRIWEDLDDDDPKFINVGEKAYSCALKSGKLVTAVSNNTIQVHTFPEGVPDGILTRFTTNANHVVFNGDGTKIAAGSSDFLVKIVDVMDSSQQKTFRGHDAPVLSLSFDPKDIFLASASCDGSVRVWQISDQTCAISWPLLQKCNDVINAKSICRLAWQPKSGKLLAIPVEKSVKLYRRESWSHQFDLSDNFISQTLNIVTWSPCGQYLAAGSINGLIIVWNVETKDCMERVKHEKGYAICGLAWHPTCGRISYTDAEGNLGLLENVCDPSGKTSSSKVSSRVEKDYNDLFDGDDMSNAGDFLNDNAVEIPSFSKGIINDDEDDEDLMMASGRPRQRSHILEDDENSVDISMLKTGSSLLKEEEEDGQEGSIHNLPLVTSQRPFYDGPMPTPRQKPFQSGSTPLHLTHRFMVWNSIGIIRCYNDEQDNAIDVEFHDTSIHHATHLSNTLNYTIADLSHEAILLACESTDELASKLHCLHFSSWDSSKEWIIDLPQNEDIEAICLGQGWAAAATSALLLRLFTIGGVQKEVFSLAGPVVSMAGHGEQLFIVYHRGTGFDGDQCLGVQLLELGKKKKQILHGDPLPLTRKSYLAWIGFSAEGTPCYVDSEGIVRMLNRGLGNTWTPICNTREHCKGKSDHYWVVGIHENPQQLRCIPCKGSRFPPTLPRPAVAILSFKLPYCQIATEKGQMEEQFWRSVIFHNHLDYLAKNGYEYEESTKNQATKEQQELLMKMLALSCKLEREFRCVELADLMTQNAVNLAIKYASRSRKLILAQKLSELAVEKAAELTATQVEEEEEEEDFRKKLNAGYSNTATEWSQPRFRNQVEEDAEDSGEADDEEKPEIHKPGQNSFSKSTNSSDVSAKSGAVTFSSQGRVKAFKVSASSKEPAMSMNSARSTNILDNMGKSSKKSTALSRTTNNEKSPIIKPLIPKPKPKQASAASYFQKRNSQTNKTEEVKEENLKNVLSETPAICPPQNTENQRPKTGFQMWLEENRSNILSDNPDFSDEADIIKEGMIRFRVLSTEERKVWANKAKGETASEGTEAKKRKRVVDESDETENQEEKAKENLNLSKKQKPLDFSTNQKLSAFAFKQE"
